Experimental data as given in patent US7037656B2, “Methods and compositions for identifying ligands for nuclear receptors” (priority 2000, dated 2006).

T1: full-length D. melanogaster ultraspiracle receptor (DmUSP) (Drosophila melanogaster)
T1 sequence (P20153 1-508, looked up): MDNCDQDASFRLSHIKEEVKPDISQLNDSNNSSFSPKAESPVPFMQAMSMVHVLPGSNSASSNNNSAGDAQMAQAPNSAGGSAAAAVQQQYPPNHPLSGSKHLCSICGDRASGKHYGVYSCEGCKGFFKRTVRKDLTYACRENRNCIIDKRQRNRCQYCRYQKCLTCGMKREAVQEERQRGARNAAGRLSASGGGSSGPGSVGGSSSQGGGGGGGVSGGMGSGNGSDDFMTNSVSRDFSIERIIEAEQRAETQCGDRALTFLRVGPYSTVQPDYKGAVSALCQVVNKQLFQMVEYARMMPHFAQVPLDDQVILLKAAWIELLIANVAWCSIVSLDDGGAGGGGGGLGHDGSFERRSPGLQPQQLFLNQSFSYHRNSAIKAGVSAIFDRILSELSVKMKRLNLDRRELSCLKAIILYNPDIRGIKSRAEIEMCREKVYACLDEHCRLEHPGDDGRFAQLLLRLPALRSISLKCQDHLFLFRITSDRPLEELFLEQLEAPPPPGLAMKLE


Tests used:
Test in all cases: cell-based or functional assay
[1] = biological target: D. melanogaster ultraspiracle receptor with deletion of the AB transactivation domain (Dm ΔAB USP) (Drosophila melanogaster) (UniProt P20153)
[2] = biological target: T1, full-length D. melanogaster ultraspiracle receptor (DmUSP) (Drosophila melanogaster)
[3] = biological target: full-length mosquito A. aegypti ultraspiracle receptor, a-form (AaUSPa) (Aedes aegypti)
[4] = biological target: full-length mosquito A. aegypti ultraspiracle receptor, b-form (AaUSPb) (Aedes aegypti)
[5] = biological target: full-length spruce budworm C. fumiferana ultraspiracle receptor (CfUSP) (Choristoneura fumiferana)
[6] = biological target: mouse RXR γ (retinoid X receptor γ) (mouse) (UniProt P28705)
mouse RXR γ (retinoid X receptor γ) (mouse), sequence (P28705 whole entry, the tested form may be a part): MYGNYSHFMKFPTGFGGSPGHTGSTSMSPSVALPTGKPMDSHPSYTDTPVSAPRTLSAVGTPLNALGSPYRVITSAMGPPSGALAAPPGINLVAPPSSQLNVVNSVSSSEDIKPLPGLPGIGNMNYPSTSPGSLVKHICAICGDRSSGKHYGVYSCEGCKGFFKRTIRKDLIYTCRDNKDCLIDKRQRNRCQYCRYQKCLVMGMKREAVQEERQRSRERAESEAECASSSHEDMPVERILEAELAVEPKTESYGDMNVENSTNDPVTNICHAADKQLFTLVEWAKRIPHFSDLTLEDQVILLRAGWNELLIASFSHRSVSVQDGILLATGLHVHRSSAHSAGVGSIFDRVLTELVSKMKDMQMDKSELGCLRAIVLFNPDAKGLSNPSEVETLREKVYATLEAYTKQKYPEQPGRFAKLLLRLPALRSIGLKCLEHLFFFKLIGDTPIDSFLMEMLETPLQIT

[7] = biological target: spruce budworm C. fumiferana ultraspiracle receptor with deletion of the A/B transactivation domain (Cf ΔAB USP) (Choristoneura fumiferana)
[8] = biological target: human RXR α (retinoid X receptor α) (human) (UniProt P19793)
human RXR α (retinoid X receptor α) (human), sequence (P19793 whole entry, the tested form may be a part): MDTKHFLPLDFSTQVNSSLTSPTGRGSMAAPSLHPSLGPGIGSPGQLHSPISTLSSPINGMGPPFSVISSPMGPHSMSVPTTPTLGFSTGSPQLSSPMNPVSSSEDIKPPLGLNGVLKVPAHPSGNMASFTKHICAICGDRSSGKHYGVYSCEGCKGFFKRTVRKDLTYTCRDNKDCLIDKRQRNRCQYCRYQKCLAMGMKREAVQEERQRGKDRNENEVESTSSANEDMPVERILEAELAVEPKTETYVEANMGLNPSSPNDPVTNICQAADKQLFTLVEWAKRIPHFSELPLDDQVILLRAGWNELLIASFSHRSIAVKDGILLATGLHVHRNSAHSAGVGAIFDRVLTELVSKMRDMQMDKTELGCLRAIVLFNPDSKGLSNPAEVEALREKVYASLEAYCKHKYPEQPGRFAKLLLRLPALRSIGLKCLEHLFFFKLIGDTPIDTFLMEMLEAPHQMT

[9] = biological target: mosquito A. aegypti ultraspiracle receptor with deletion of the A/B transactivation domain (Aa ΔAB USP) (Aedes aegypti)
[10] = biological target: mouse RXR β (retinoid X receptor β) (mouse) (UniProt P28704)
mouse RXR β (retinoid X receptor β) (mouse), sequence (P28704 111-520 limits assumed): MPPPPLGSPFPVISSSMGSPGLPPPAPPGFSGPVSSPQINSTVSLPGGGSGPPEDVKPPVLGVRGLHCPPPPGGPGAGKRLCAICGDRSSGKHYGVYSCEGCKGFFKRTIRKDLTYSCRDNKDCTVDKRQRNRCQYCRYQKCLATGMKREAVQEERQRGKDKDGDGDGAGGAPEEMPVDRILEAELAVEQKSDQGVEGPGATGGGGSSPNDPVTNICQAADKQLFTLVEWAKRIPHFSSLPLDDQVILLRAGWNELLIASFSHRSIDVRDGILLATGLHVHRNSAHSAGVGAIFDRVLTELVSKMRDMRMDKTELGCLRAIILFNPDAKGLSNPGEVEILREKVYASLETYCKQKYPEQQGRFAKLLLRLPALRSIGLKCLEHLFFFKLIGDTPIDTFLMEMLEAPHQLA

Row | β-galactosidase activity (yeast 6x EcRE-lacZ reporter), DMSO, without GRIP1 [2] | β-galactosidase activity (yeast 6x EcRE-lacZ reporter), RH 5992 10 µM, without GRIP1 [2] | β-galactosidase activity (yeast 6x EcRE-lacZ reporter), DMSO, with GRIP1 [3] | β-galactosidase activity (yeast 6x EcRE-lacZ reporter), RH 5992 10 µM, with GRIP1 [3] | β-galactosidase activity (yeast 6x EcRE-lacZ reporter), DMSO, with GRIP1 [4] | β-galactosidase activity (yeast 6x EcRE-lacZ reporter), RH 5992 10 µM, with GRIP1 [4] | β-galactosidase activity (yeast 6x EcRE-lacZ reporter), DMSO, with GRIP1 [6] | β-galactosidase activity (yeast 6x EcRE-lacZ reporter), RH 5992 10 µM, with GRIP1 [6] | β-galactosidase activity (yeast 6x EcRE-lacZ reporter), DMSO, with GRIP1 [7] | β-galactosidase activity (yeast 6x EcRE-lacZ reporter), RH 5992 10 µM, with GRIP1 [7] | β-galactosidase activity (yeast 6x EcRE-lacZ reporter), DMSO, without GRIP1 [3] | β-galactosidase activity (yeast 6x EcRE-lacZ reporter), RH 5992 10 µM, without GRIP1 [3] | β-galactosidase activity (yeast 6x EcRE-lacZ reporter), DMSO, without GRIP1 [4] | β-galactosidase activity (yeast 6x EcRE-lacZ reporter), RH 5992 10 µM, without GRIP1 [4] | β-galactosidase activity (yeast 6x EcRE-lacZ reporter), DMSO, without GRIP1 [5] | β-galactosidase activity (yeast 6x EcRE-lacZ reporter), RH 5992 10 µM, without GRIP1 [5] | β-galactosidase activity (yeast 6x EcRE-lacZ reporter), DMSO, without GRIP1 [7] | β-galactosidase activity (yeast 6x EcRE-lacZ reporter), RH 5992 10 µM, without GRIP1 [7] | β-galactosidase activity (yeast 6x EcRE-lacZ reporter), DMSO, with GRIP1 [8] | β-galactosidase activity (yeast 6x EcRE-lacZ reporter), RH 5992 10 µM, with GRIP1 [8] | Molecule | other results
1 | 0.152 | 0.182 | 0.243 | 1.86 | 0.251 | 2.07 | 0.364 | 1.28 | 0.235 | 0.59 | – | – | – | – | – | – | – | – | – | – | N-terminal truncated D. melanogaster EcR B-1 ecdysone receptor (Dm ΔN EcR) (from UniProt P34021 221-878) | β-galactosidase activity (yeast 6x EcRE-lacZ reporter), DMSO, with GRIP1 [1]: 0.34; β-galactosidase activity (yeast 6x EcRE-lacZ reporter), RH 5992 10 µM, with GRIP1 [1]: 2.32; β-galactosidase activity (yeast 6x EcRE-lacZ reporter), DMSO, with GRIP1 [2]: 0.424; β-galactosidase activity (yeast 6x EcRE-lacZ reporter), RH 5992 10 µM, with GRIP1 [2]: 2.54; β-galactosidase activity (yeast 6x EcRE-lacZ reporter), DMSO, with GRIP1 [5]: 1.15; β-galactosidase activity (yeast 6x EcRE-lacZ reporter), RH 5992 10 µM, with GRIP1 [5]: 1.41
2 | – | – | – | – | – | – | – | – | – | – | 2.3 | 2.45 | 3 | 2.7 | – | – | – | – | – | – | full-length mosquito A. aegypti ecdysone receptor (AaEcR) (from UniProt P49880 1-776) | –
3 | – | – | – | – | – | – | – | – | 0.223 | 0.492 | – | – | – | – | 2.73 | 3 | 0.205 | 0.241 | – | – | full-length spruce budworm C. fumiferana ecdysone receptor (CfEcR) | –
4 | – | – | 0.272 | 2.03 | 0.24 | 2.07 | 0.496 | 2.67 | 0.25 | 3 | 0.194 | 0.209 | 0.177 | 0.184 | – | – | – | – | 0.544 | 2.03 | mosquito A. aegypti ecdysone receptor with deletion of the A/B transactivation domain (Aa ΔAB EcR) (from UniProt P49880 285-776) | β-galactosidase activity (yeast 6x EcRE-lacZ reporter), DMSO, with GRIP1 [9]: 0.194; β-galactosidase activity (yeast 6x EcRE-lacZ reporter), DMSO, without GRIP1 [9]: 0.187; β-galactosidase activity (yeast 6x EcRE-lacZ reporter), RH 5992 10 µM, with GRIP1 [9]: 1.37; β-galactosidase activity (yeast 6x EcRE-lacZ reporter), RH 5992 10 µM, without GRIP1 [9]: 0.196; β-galactosidase activity (yeast 6x EcRE-lacZ reporter), DMSO, with GRIP1 [10]: 0.231; β-galactosidase activity (yeast 6x EcRE-lacZ reporter), RH 5992 10 µM, with GRIP1 [10]: 1.98
5 | – | – | – | – | – | – | 0.2 | 1.03 | 0.2 | 2.5 | – | – | – | – | 2.68 | 3 | 0.209 | 0.234 | 0.27 | 2.06 | spruce budworm C. fumiferana ecdysone receptor with deletion of the AB transactivation domain (Cf ΔAB EcR) | β-galactosidase activity (yeast 6x EcRE-lacZ reporter), DMSO, with GRIP1 [10]: 0.205; β-galactosidase activity (yeast 6x EcRE-lacZ reporter), RH 5992 10 µM, with GRIP1 [10]: 0.456; β-galactosidase activity (yeast 6x EcRE-lacZ reporter), RH 5992 10 µM, with GRIP1 (Table 4 prints another value than Table 3 for this combination) [7]: 3
6 | 2.09 | 1.95 | – | – | – | – | – | – | – | – | – | – | – | – | – | – | – | – | – | – | full-length D. melanogaster EcR B-1 ecdysone receptor (receptor, Drosophila melanogaster, UniProt P34021 1-878, looked up) MKRRWSNNGGFMRLPEESSSEVTSSSNGLVLPSGVNMSPSSLDSHDYCDQDLWLCGNESGSFGGSNGHGLSQQQQSVITLAMHGCSSTLPAQTTIIPINGNANGNGGSTNGQYVPGATNLGALANGMLNGGFNGMQQQIQNGHGLINSTTPSTPTTPLHLQQNLGGAGGGGIGGMGILHHANGTPNGLIGVVGGGGGVGLGVGGGGVGGLGMQHTPRSDSVNSISSGRDDLSPSSSLNGYSANESCDAKKSKKGPAPRVQEELCLVCGDRASGYHYNALTCEGCKGFFRRSVTKSAVYCCKFGRACEMDMYMRRKCQECRLKKCLAVGMRPECVVPENQCAMKRREKKAQKEKDKMTTSPSSQHGGNGSLASGGGQDFVKKEILDLMTCEPPQHATIPLLPDEILAKCQARNIPSLTYNQLAVIYKLIWYQDGYEQPSEEDLRRIMSQPDENESQTDVSFRHITEITILTVQLIVEFAKGLPAFTKIPQEDQITLLKACSSEVMMLRMARRYDHSSDSIFFANNRSYTRDSYKMAGMADNIEDLLHFCRQMFSMKVDNVEYALLTAIVIFSDRPGLEKAQLVEAIQSYYIDTLRIYILNRHCGDSMSLVFYAKLLSILTELRTLGNQNAEMCFSLKLKNRKLPKFLEEIWDVHAIPPSVQSHLQITQEENERLERAERMRASVGGAITAGIDCDSASTSAAAAAAQHQPQPQPQPQPSSLTQNDSQHQTQPQLQPQLPPQLQGQLQPQLQPQLQTQLQPQIQPQPQLLPVSAPVPASVTAPGSLSAVSTSSEYMGGSAAIGPITPATTSSITAAVTASSTTSAVPMGNGVGVGVGVGGNVSMYANAQTAMALMGVALHSHQEQLIGGVAVKSEHSTTA | –
